Reference: paper PMC5836505

How the values were obtained:
GST-FUS [1] = target: T1, GST-FUS (Homo sapiens, UniProt P35637 1-526); assay: competition
GST-FUS [2] = target: T1, GST-FUS; assay: EMSA
His-FUS = His-FUS (UniProt P35637 1-526); assay: single-molecule TIRF
GST-FUS [3] = target: T1, GST-FUS; assay: EMSA; remark: listed apart in the source

T1 sequence (P35637 whole entry): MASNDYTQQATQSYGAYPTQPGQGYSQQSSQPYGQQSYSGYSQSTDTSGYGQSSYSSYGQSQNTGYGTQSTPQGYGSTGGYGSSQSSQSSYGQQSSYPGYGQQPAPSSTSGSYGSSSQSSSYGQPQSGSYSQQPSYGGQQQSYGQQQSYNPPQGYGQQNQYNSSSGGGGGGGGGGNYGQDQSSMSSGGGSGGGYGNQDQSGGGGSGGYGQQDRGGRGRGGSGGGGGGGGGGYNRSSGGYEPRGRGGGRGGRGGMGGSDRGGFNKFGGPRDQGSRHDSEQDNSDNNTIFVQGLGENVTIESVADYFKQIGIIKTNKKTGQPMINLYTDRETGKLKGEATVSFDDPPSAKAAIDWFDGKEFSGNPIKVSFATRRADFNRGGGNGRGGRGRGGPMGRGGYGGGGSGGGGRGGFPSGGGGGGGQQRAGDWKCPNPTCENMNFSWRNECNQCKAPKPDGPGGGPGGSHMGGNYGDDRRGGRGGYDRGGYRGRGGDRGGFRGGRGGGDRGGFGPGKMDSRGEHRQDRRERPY
Sequence of His-FUS (P35637 whole entry): as above

UAAUACUGCCGGGUAAUGAUGGA (ssRNA) [miR-200c (untagged)]
binding result (GST-FUS [1]): binds

UAAUACUGCCGGGUAAUGAUGGA (ssRNA) [miR-200c (Cy5)]
binding result (GST-FUS [2]): binds | binding result (His-FUS): binds

UUGUAUUUUGAGCUAGUUUGGUGAC (ssRNA) [GGUG oligo]
binding result (GST-FUS [3]): binds
